Experimental data: patent US20030148958A1 (PROCTER AND GAMBLE, published 2003)

T1: CRF2R
T1 sequence (Q13324 whole entry, species assumed, looked up): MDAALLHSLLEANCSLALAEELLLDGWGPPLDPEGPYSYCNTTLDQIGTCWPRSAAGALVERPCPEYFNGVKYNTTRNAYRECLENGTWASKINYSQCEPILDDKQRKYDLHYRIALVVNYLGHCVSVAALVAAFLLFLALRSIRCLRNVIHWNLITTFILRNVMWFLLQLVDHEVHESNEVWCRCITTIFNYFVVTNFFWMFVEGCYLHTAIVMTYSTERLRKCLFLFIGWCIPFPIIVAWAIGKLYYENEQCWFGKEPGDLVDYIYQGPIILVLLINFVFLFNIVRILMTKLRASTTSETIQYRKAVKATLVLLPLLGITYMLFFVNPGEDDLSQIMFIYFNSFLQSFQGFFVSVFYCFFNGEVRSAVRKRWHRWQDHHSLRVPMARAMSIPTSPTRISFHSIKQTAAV


The binders below were run against T1, CRF2R (assay: cell-based or functional assay).
Wherever CRF1R Emax % is given: reference of the scale not given here.
Wherever CRF2R Emax % is given: reference of the scale not given here.

CRF2R EC50	CRF2R Emax %	Binder
26.9 nM	100%	ZGPPISIDLPQYLLRKMIEIEKQEKEKQQAANNALLLDTI (C-terminal amide) [SEQ ID NO 224]
8.8 nM	98%	ZGPPISIDLPLYLLRKMIEIEKQEKEKQQAANNALLLDTI (C-terminal amide) [SEQ ID NO 244]
12.6 nM	99%	ZGPPISIDLPLHLLRKMIEIEKQEKEKQQAANNALLLATI (C-terminal amide) [SEQ ID NO 241]
19.7 nM	100%	ZGPPISIDLPFQLLRKMIEIEKQEKEKQQAANNRLLLATI (not fully specified; C-terminal amide) [SEQ ID NO 250]
7.6 nM	100%	ZGPPISIDLPYYLLRKMIEIEKQEKEKQQAANNALLLDTI (C-terminal amide) [SEQ ID NO 226]
11.8 nM	100%	ZGPPISIDLPFQLLRKMIEIEKQEKEKQQAANNALLLDTI (C-terminal amide) [SEQ ID NO 251]
7 nM	100%	ZGPPISIDLPFQLLRILIEIEKQEKEKQQAANNRLLLDTI (not fully specified; C-terminal amide) [SEQ ID NO 255]
46.1 nM	95%	ZGPPISIDLPTYLLRKMIEIEKQEKEKQQAANNALLLATI (C-terminal amide) [SEQ ID NO 233]
41.8 nM	86%	ZGPPISIDVPTYLLRKMIEIEKQEKEKQQAANNRLLLDTI (C-terminal amide) [SEQ ID NO 253]
7.1 nM	100%	ZGPPISIDLPFHLLRKMIEIEKQEKEKQQAANNALLLDTI (C-terminal amide) [SEQ ID NO 228]
22.3 nM	100%	ZGPPISIDLPTYLLRILIEIEKQEKEKQQAANNRLLLDTI (not fully specified; C-terminal amide) [SEQ ID NO 252]
33.6 nM	95%	ZGPPISIDLPQYLLRKMIEIEKQEKEKQQAANNALLLATI (C-terminal amide) [SEQ ID NO 227]
22.2 nM	93%	ZGPPISIDLPIYLLRKMIEIEKQEKEKQQAANNALLLATI (C-terminal amide) [SEQ ID NO 237]
5.9 nM	100%	ZGPPISIDLPFYLLRKMIEIEKQEKEKQQAANNALLLATI (C-terminal amide) [SEQ ID NO 231]
7.5 nM	93%	ZGPPISIDLPLYLLRKMIEIEKQEKEKQQAANNALLLATI (C-terminal amide) [SEQ ID NO 245]
19.6 nM	98%	ZGPPISIDLPLQLLRKMIEIEKQEKEKQQAANNALLLDTI (not fully specified; C-terminal amide) [SEQ ID NO 248]

CRF2R EC50	CRF2R Emax %	Binder
45.3 nM	100%	ZGPPISIDLPTYLLRKMIEIEKQEKEKQQAANNALLLDTI (C-terminal amide) [SEQ ID NO 232]
25.7 nM	100%	ZGPPISIDLPLELLRKMIEIEKQEKEKQQAANNALLLDTI (C-terminal amide) [SEQ ID NO 235]
29 nM	94%	ZGPPISIDLPLYLLRKMIEIEKQEKEKQQATTNARLLDTV (C-terminal amide) [SEQ ID NO 242]
40.4 nM	97%	ZGPPISIDLPIYLLRKMIEIEKQEKEKQQAANNALLLDTI (C-terminal amide) [SEQ ID NO 236]
4.8 nM	89%	ZGPPISIDLPYYLLRKMIEIEKQEKEKQQAANNALLLATI (C-terminal amide) [SEQ ID NO 225]
20.6 nM	100%	ZGPPISIDLPLELLRKMIEIEKQEKEKQQAANNALLLATI (C-terminal amide) [SEQ ID NO 234]
22 nM	100%	ZGPPISIDLPLHLLRKMIEIEKQEKEKQQAANNALLLDTI (C-terminal amide) [SEQ ID NO 240]
10.3 nM	100%	ZGPPISIDLPFHLLRKMIEIEKQEKEKQQAANNALLLATI (C-terminal amide) [SEQ ID NO 229]
8.1 nM	100%	ZGPPISIDLPFYLLRKMIEIEKQEKEKQQAANNALLLDTI (C-terminal amide) [SEQ ID NO 230]
100 nM	36%	ZGPPISIDVPIGLLRKMIEIEKQEKEKQQAANNRLLLDTI (not fully specified; C-terminal amide) [SEQ ID NO 254]
12.2 nM	92%	ZGPPISIDLPLQLLEKMIEIEKQEKEKQQAANNALLLATI (not fully specified; C-terminal amide) [SEQ ID NO 249]
16.7 nM	100%	ZGPPISIDLPLHLLRKMIEIEKQEKEKQQATTNARLLDTV (C-terminal amide) [SEQ ID NO 238]
18.8 nM	100%	ZGPPISIDLPLQLLEKMIEIEKQEKEKQQATTNARLLDRV (C-terminal amide) [SEQ ID NO 247]
13.2 nM	100%	ZGPPISIDLPLHLLRKMIEIEKQEKEKQQATTNARLLDRV (C-terminal amide) [SEQ ID NO 239]
38.8 nM	100%	ZGPPISIDLPLQLLRKMIEIEKQEKEKQQATTNARLLDTV (C-terminal amide) [SEQ ID NO 246]
16.8 nM	100%	ZGPPISIDLPLYLLRKMIEIEKQEKEKQQATTNARLLDRV (C-terminal amide) [SEQ ID NO 243]

What follows are binders tested against CRF1R (assay: cell-based or functional assay).

CRF1R EC50	CRF1R Emax %	Binder
1000 nM	27%	ZGPPISIDLPQYLLRKMIEIEKQEKEKQQAANNALLLDTI (C-terminal amide) [SEQ ID NO 224]
300 nM	100%	ZGPPISIDLPLYLLRKMIEIEKQEKEKQQAANNALLLDTI (C-terminal amide) [SEQ ID NO 244]
308 nM	99%	ZGPPISIDLPLHLLRKMIEIEKQEKEKQQAANNALLLATI (C-terminal amide) [SEQ ID NO 241]
138 nM	99%	ZGPPISIDLPFQLLRKMIEIEKQEKEKQQAANNRLLLATI (not fully specified; C-terminal amide) [SEQ ID NO 250]
315 nM	95%	ZGPPISIDLPYYLLRKMIEIEKQEKEKQQAANNALLLDTI (C-terminal amide) [SEQ ID NO 226]
926 nM	80%	ZGPPISIDLPFQLLRKMIEIEKQEKEKQQAANNALLLDTI (C-terminal amide) [SEQ ID NO 251]
33.3 nM	84%	ZGPPISIDLPFQLLRILIEIEKQEKEKQQAANNRLLLDTI (not fully specified; C-terminal amide) [SEQ ID NO 255]
1000 nM	11%	ZGPPISIDLPTYLLRKMIEIEKQEKEKQQAANNALLLATI (C-terminal amide) [SEQ ID NO 233]
1000 nM	42%	ZGPPISIDVPTYLLRKMIEIEKQEKEKQQAANNRLLLDTI (C-terminal amide) [SEQ ID NO 253]
276 nM	100%	ZGPPISIDLPFHLLRKMIEIEKQEKEKQQAANNALLLDTI (C-terminal amide) [SEQ ID NO 228]
226 nM	100%	ZGPPISIDLPTYLLRILIEIEKQEKEKQQAANNRLLLDTI (not fully specified; C-terminal amide) [SEQ ID NO 252]
918 nM	18%	ZGPPISIDLPQYLLRKMIEIEKQEKEKQQAANNALLLATI (C-terminal amide) [SEQ ID NO 227]
1000 nM	18%	ZGPPISIDLPIYLLRKMIEIEKQEKEKQQAANNALLLATI (C-terminal amide) [SEQ ID NO 237]
94 nM	100%	ZGPPISIDLPFYLLRKMIEIEKQEKEKQQAANNALLLATI (C-terminal amide) [SEQ ID NO 231]
381 nM	100%	ZGPPISIDLPLYLLRKMIEIEKQEKEKQQAANNALLLATI (C-terminal amide) [SEQ ID NO 245]
1000 nM	32%	ZGPPISIDLPLQLLRKMIEIEKQEKEKQQAANNALLLDTI (not fully specified; C-terminal amide) [SEQ ID NO 248]

CRF1R EC50	CRF1R Emax %	Binder
1000 nM	7%	ZGPPISIDLPTYLLRKMIEIEKQEKEKQQAANNALLLDTI (C-terminal amide) [SEQ ID NO 232]
806 nM	70%	ZGPPISIDLPLELLRKMIEIEKQEKEKQQAANNALLLDTI (C-terminal amide) [SEQ ID NO 235]
358 nM	99%	ZGPPISIDLPLYLLRKMIEIEKQEKEKQQATTNARLLDTV (C-terminal amide) [SEQ ID NO 242]
1000 nM	15%	ZGPPISIDLPIYLLRKMIEIEKQEKEKQQAANNALLLDTI (C-terminal amide) [SEQ ID NO 236]
220 nM	97%	ZGPPISIDLPYYLLRKMIEIEKQEKEKQQAANNALLLATI (C-terminal amide) [SEQ ID NO 225]
434 nM	96%	ZGPPISIDLPLELLRKMIEIEKQEKEKQQAANNALLLATI (C-terminal amide) [SEQ ID NO 234]
915 nM	80%	ZGPPISIDLPLHLLRKMIEIEKQEKEKQQAANNALLLDTI (C-terminal amide) [SEQ ID NO 240]
298 nM	100%	ZGPPISIDLPFHLLRKMIEIEKQEKEKQQAANNALLLATI (C-terminal amide) [SEQ ID NO 229]
219 nM	100%	ZGPPISIDLPFYLLRKMIEIEKQEKEKQQAANNALLLDTI (C-terminal amide) [SEQ ID NO 230]
708 nM	6%	ZGPPISIDVPIGLLRKMIEIEKQEKEKQQAANNRLLLDTI (not fully specified; C-terminal amide) [SEQ ID NO 254]
1000 nM	50%	ZGPPISIDLPLQLLEKMIEIEKQEKEKQQAANNALLLATI (not fully specified; C-terminal amide) [SEQ ID NO 249]
753 nM	88%	ZGPPISIDLPLHLLRKMIEIEKQEKEKQQATTNARLLDTV (C-terminal amide) [SEQ ID NO 238]
1000 nM	34%	ZGPPISIDLPLQLLEKMIEIEKQEKEKQQATTNARLLDRV (C-terminal amide) [SEQ ID NO 247]
587 nM	80%	ZGPPISIDLPLHLLRKMIEIEKQEKEKQQATTNARLLDRV (C-terminal amide) [SEQ ID NO 239]
1000 nM	33%	ZGPPISIDLPLQLLRKMIEIEKQEKEKQQATTNARLLDTV (C-terminal amide) [SEQ ID NO 246]
440 nM	96%	ZGPPISIDLPLYLLRKMIEIEKQEKEKQQATTNARLLDRV (C-terminal amide) [SEQ ID NO 243]
